The series is described as follows: soluble on expression in E. coli; label from the status in PepcDB or PDB records.
In the case of “MGSDKIHHHHHHMLELKHNFIFEDQPVAWGCMGQGPALVLIHGTPFSSQVWRRIAPLLSSHWTVYYYDMVGYGQSHKSAGQQVSLGGQDRLLAALLKEWKLTRPDILCHDFGGATALRGYFLQGLRYASLTLFDAVAISPWGSPFVAHVRKHQDAFTGLPKYAHDALLSAYLQGAAYQPLSEEALNIYMSPWQGEVGQAAFYRQIAQMDQCYTDDIEPLLTELDCPVNMLWGEQDEWIPLEVGKRLAHRLGDAPLQIVKNAGHLVQEDAPEAIVQSMYSLLLKRAGTSSSR”, the “soluble on expression in E. coli” value is “not soluble”. The same measure for “MNTINANDLKTRGIAAIEAQLEEQPEAIIAVRGKDRYVVMQLEHYYYLRECELTAALAETRADLAAGRCEQESPEAHLARLDTLK”: “not soluble”; for “MGFIMEFAENLVLRLMENPEERDRKAREHIYEMHERCKKIKEMWALPIRPYGFWTFERHNAQLRWDPQISQVAGRRDPYDDLLEDNYTPPSSSSSSSD”: “soluble”; for “WLSPEIEALSHGTRLNNIDMYPALQRLLPWPEATNFEEFAPSHLSVPSGNQHRLDYSSGRPVIRVKLQECFGLEESPQLCGIPVQFHLLSPAGRPLAVTDDLRSFWSGPYSQVRAEMRGRYPKHPWPEDPWTAPATARTKNRM”: “not soluble”. In the case of “MAASASGKSKTSAGANRRRNRPSPRQRLLDSATNLFTTEGIRVIGIDRILREADVAKASLYSLFGSKDALVIAYLENLDQLWREAWRERTVGMKDPEDKIIAFFDQCIEEEPEKDFRGSHFQNAASEYPRPETDSEKGIVAAVLEHREWCHKTLTDLLTEKNGYPGTTQANQLLVFLDGGLAGSRLVHNISPLETARDLARQLLSAPPADYSI” it was “soluble”; in that of “MGSDKIHHHHHHMTLSKERKLHIPFERDGDLMDIGSYPHWLQDVVGTVRAARDRVRFHEVFSLMRDGRLAPRQLAAFFVNGWPVVEQFPKYMSMNLLKANGTNSSGEEKARRYLIRNIRVELNHVEHWVNWAEASGVPRRQLTDGDSPPAALALSHWCWKSSSADTLAASIAATNYAIEGVTGEWSADLCRSDVYEMGFPEAVRGRAMRWLRLHSSYDDKHPWEALDIVATILGQSPSTEQVRDVAAGIERSFRYFEMSLSCCLDA”, “not soluble”.

As to “MGSDKIHHHHHHMLSMKNIVGKPQTIKKVNEDLIKNIIKNEGPITKPEISSITELSLATVNKIVEQLALKNEVKVSGLSESTGGRRAQLFEINANLEHIIALYYYRNCCIGVVANLLGEIIYQEEFNIRMDTYENVNQDTFFVIDTLIKKEKGNNIRAIGIGVPGVVKKGVVKNIPTIKSWEGINLENLIKSKYNTKVFIENDTNITTIGIYQKQYKDKYKNMALMYLEDGIGSGIVINGELYLGSTNFAGELSYLNIEFGKYNSNNLNLEDYIMSLRKRYLESKDNKFKKEILSIISNFIRTLVCVLNPQAMIIQCSILTKSDMEFIEKDVSNNVGEENFPKLIKVESLREGSINGVISMCLKETDYQYSLSNKKGGY”, the “soluble on expression in E. coli” value is reported as “not soluble”. Take “MGSSHHHHHHGKTIFVIVPTNEEQVAFLEALAKQDELNFDWQNPPTEPGQPVVILIPSDMVEWFLEMLKAKGIPFTVYVEEGGSENLYFQGGGGGGRPIVANRARHPALIVDIPFAALAWQCVQFLAVVVAHSLMRQMMLASVIRFTAVFLGIRRCRGAFVVAPLFVLQPLLQHLQQLITHPLTCLQGGIQWQLHALVEHLVHLQHLPSPRVQLSHVTKKRRAPVRKVVCGRIIHVHRTLLLLKQLRLLGVPGTQRAESSEHGGEPLTAVLVQLDKSIASRSGDNGDGGGRCR”: the “soluble on expression in E. coli” value is “not soluble”.

Take “KDQIPIILIHGSGGNASSLDKMADQLMNEYRSSNEALTMTVNSEGKIKFEGKLTKDAKRPIIKFGFEQNQATPDDWSKWLKIAMEDLKSRYGFTQMDGVGHSNGGLALTYYAEDYAGDKTVPTLRKLVAIGSPFNDLDPNDNGMDLSFKKLPNSTPQMDYFIKNQTEVSPDLEVLAIAGELSEDNPTDGIVPTISSLATRLFMPGSAKAYIEDIQVGEDAVHQTLHETPKSIEKTYWFLEKFKTDETVIQLDYK”: the “soluble on expression in E. coli” value was “soluble”. As to “MSASAETVAPEGYRKLLDVQIFKDSPVVGWSGSGMGELETIGDTLPVDTTVTYNGLPTLRLNVQTTVQSGWWISLLTLRGWNTHDLSQYVENGYLEFDIKGKEGGEDFVIGFRDKVYERVYGLEIDVTTVISNYVTVTTDWQHVKIPLRDLMKINNGFDPSSVTCLVFSKRYADPFTVWFSDIKITSEDNEKSAPAIKLEHHHHHH”, the “soluble on expression in E. coli” value is reported as “soluble”.

Consider “MVQVGAAAINRVDVAVIGGGIAGVAIAEYVARHTNLSVQLLEQNSHLGGDSSGKLEGWFHTGALYSGQDDGQTFFNCVNGVEDLLNHYSHYFAGRCNLTLEQFDHGYRPTVTGAGWFDPNPVYLIHPQRHSPEMLQSGLKGDRVQLEMQLKRVLGRLEMAYGQQFNWRSPTGNGAVAPDYDHLESYEQRSCSLLGQSEKISHYCQQFDLSHGVKPSDYALLKSLDCAMDTQGILQDLTASALAHGTAIATGINLEQINVDRYGPVRVQSIFYRDCQGQQHYLKAKAFIFAVGAGFERILPTLQVRAKLKQSRSTMVVAYPAISSHNFVRMSTKNSYHFNHFFQRANIPDSSEFLNYSMLANSGYVSNENDYLASGEIELLLDTAARYFSEENLYQRQLWSYDCVKTEFISDDAQKRRYSYWIEVNPQSNYLCVLPGKFSFFPTVAVQTLKQLKTILPTEEVDRSHRDYSAHYHQAQALVASPYPHQLLASYWKNNANSLEHHHHHH”, for which the “soluble on expression in E. coli” value is “soluble”. Consider “MASMTGGQQMGRGSDYFEPQQQQQQQQQQPQGASTPKVFVGYSIYKGKAALTVEPRSPEFSPLDSGAFKLSREGMVMLQFAPAAGVRQYDWSRKQVFSLSVTEIGSIISLGTKDSCEFFHDPNKGRSDEGRVRKVLKVEPLPDGSGHFFNLSVQNKLINLDENIYIPVTKAEFAVLVSAFNFVMPYLLGWHTAVNSFKPEDASRSNNANPRSGAELEWNLEHHHHHH”, for which the “soluble on expression in E. coli” value is “soluble”. In the case of “MGHHHHHHSHKPIKVEKTVTINKPADELYRYWHNFENLPTFMKHLKSVKVYNEKRSHWIANAPLGNSVEWDADILEDRENEFISWASAEGADVENSGFVRFQKAPGDVPGQAASRLRGTEVKVVLEYNLPGGALAAVVAKLFGEEP” it was “not soluble”; in that of “DSNALWMPYVNGRIRVIVMRNGGGGIFRFIPGPDSLKELETCFETPLEVPVREMAGAYGWRYMKAVSAEELETVLPSFFASGDRAVLLEVETPRFENAPVLKSYFTYISGESYPVNR”, “not soluble”; in that of “MGSDKIHHHHHHSDDKDSYPVPSDIENLKATPAPGQITLSWTNPADENLYYVQIEYTIGATGKSYRKQVSQYANELVIDNLLQKYGEINFTVQAFNRGNTAGTIHQITAQAEKASPTFGTPVKIDLDYKKIWTNAPFPTRPIKDLVDGNIATFFHSWWSSLVEMPHYLVVDLGEEVSAIKFRSTNTNRANDSSWKTINLYTSDSYNPAEWFDGVEKIDGNTVDISQAGTHKETTLTGLPDGVSEVYNSEVIPLSKPSRYLWFEVTETTKGTPYFALGELEIYQCSMVVLE”, “not soluble”.

In the case of “GDTRPRFLQQDKYECHFFNGTERVRFLHRDIYNQEEDLRFDSDVGEYRAVTELGRPDAEYWNSQKDFLEDRRAAVDTYCRHNYGVGESFTVQRRVEPKVTVYPARTQTLQHHNLLVCSVNGFYPGSIEVRWFRNSQEEKAGVVSTGLIQNGDWTFQTLVMLETVPRSGEVYTCQVEHPSVTSPLTVEWRAQS”, the “soluble on expression in E. coli” value is “soluble”. On to “QGMNNPADAGINLNYLANVRPSSRQLAWQRMEMYAFLHFGMNTMTDREWGLGHEDPALFNPRNVDVDQWMDALVAGGMAGVILTCKHHDGFCLWPSRLTRHTVASSPWREGKGDLVREVSESARRHGLKFGVYLSPWDRTEESYGKGKAYDDFYVGQLTELLTQYGPIFSVWLDGANGEGKNGKTQYYDWDRYYNVIRSLQPDAVISVCGPDVRWAGNEAGHVRDNEWSVVPRRLRSAELTMEKSQQEDDASFATTVSSQDDDLGSREAVAGYGDNVCWYPAEVDTSIRPGWFYHQSEDDKVMSADQLFDLWLSAVGGNSSLLLNIPPSPEGLLAEPDVQSLKGLGRRVSEFREALASVRCEARTSSASAAAAHLVDGNRDTFWRPDADDAAPAITLTLPQPTTINAIVIEEAIEHGQRIEHLRVTGALPDGTERVLGQAGTVGYRRILRFDDVEVSSVTLHVDGSRLAPMISRAAAVRI”, for which the “soluble on expression in E. coli” value is “soluble”. Turning to “MGSDKIHHHHHHMEKDIFVELNFLIMIIDDALPKFDLPVDFVTDDSITGDILNQYGRFPCHIKAGVFVLCTRGTVRATINLSEYTITHNDFVTVLPGSFIQIHEVSSDTRVCFAGFSSEFISRVSYVETYLDFLPMILDNPIMALQEEVAQLYRNAFSLLIRAYSLPNTLDNKEILMSIFTIFFQGVGELYKRCKPTTNEPIKREHELYRQFIQLLMTHYTQEHEVSFYAKKCGVTPAHFSGAIRKASGHSPLAIITGIIIMNAKAQLKSTRLPVKEIAFSLGFNNLSFFNKYFRKHVKMTPQEYREC”, the “soluble on expression in E. coli” value is “not soluble”. In the case of “MGSDKIHHHHHHMINLFLYCRAGYEKDCAAEIQQRAAELNVGGFVKTNRNDGYVIFQCFQVGDADLLAEQIELDSLIFTRQMFAANELLKDLPEGDRVTPIVDALAKVHRAGELRVETPDTNEAKELSTFCRKLTVPLRQALKRSGALLEKENPKRPIIHVCFVGPGTAYVGYSLSHNSSPYFMGIPRLKMASDAPSRSTLKLDEAFIHFIPKSEQEQRLRSGMNSVDLGACPGGWTYQLVRRGMFVAAVDNGPMAQNLMDTGQVRHYQADGFRFEPPKKNIYWLVCDMVEKPSRVAELMEAWAINGWFKEAIFNLKLPMKSRYKEVSTILATMQEVLRENGIDDFHLACKHLYHDRDEVTVHLWLKPSVGFNFG” it was “not soluble”; in that of “MGSDKIHHHHHHMQPEIRKIVTYDEEVLIEGFRKADAPWRMFAIACVVRNPWAGRFVEDLKPEIMAYGPVLGELMTERMITLAGSGDAIEAYGKAAIVGVDGEVEHASGLIHTLRFGNFFREAVGANSYLAFTNTRGPANAPIMVPLMDKNDAGRRSHYLTIQFAIPDAPRADEIVVLLGAATSGRPHHRIGDRYQDLKDLGHDLDNPAAV”, “not soluble”.

Take “MAARTALGAVCRRLWQGLGNFSVNTSKGNTAKNGGLLLSTNMKWVQFSNLHVDVPKDLTKPVVTISDEPDILYKRLSVLVKGHDKAVLDSYEYFAVLAAKELGISIKA”: the “soluble on expression in E. coli” value is “not soluble”. The same measure for “MKHQHQHQHQHQHQMHQTEDYCLASNKVGRCRGSFPRWYYDPTEQICKSFVYGGCLGNKNNYLREEECILACRGV”: “soluble”; for “MSEPASVPRGAAPGSRGTASPRAVVIGAGLAGMLAAAALHRHAEVTVVDRDVLPAEPAPRKGLPQARHAHLLWSGGARAMEDLLPGVTAAWLAAGARRIPLPTGLVSLSAQGWLRRWPEMEFMISCTRDLLDSVIREQVAKKEGVTLLAGTELLGLEGGALRVTGVRVRTPEGEERVLEADLVVDASGRGSRSVAWLDALGVPQAPMDEVDSGLAYASRIFRAPAGTEDFPVVNVQPDPAQPVPAQSATIVPVEGGRWLVTLSGTHGGQPTASAEEFEAFARGVRDPVVGELIAHAEPLTNVVLTRSTINRRRFFEKVKDWPEGFVAIGDAVATYNPVYGHGMSVAAQGAVALREHVAEHGLAAPGLARRAQRAVALPVKIAWELATGTDIRYPEAIGKQPGGTQKLLGRYVERLMRTATGRPLVAQAFLGVITLSRPLSTLVKPEVLFAVLRGPRRSPLAGPPLTPEERKAVLTAKEPSGTQAAGLEHHHHHH”: “not soluble”.

The record behind these values is the DeepSol protein solubility set.
